{"source": "patent US20100120171A1", "key": {"[1]": {"molecular_target": "Standard VE-cadherin (standard solutions run with the Bender MedSystems BMS253 kit) (UniProt P33151)", "sequence (P33151 48-593 limits assumed)": "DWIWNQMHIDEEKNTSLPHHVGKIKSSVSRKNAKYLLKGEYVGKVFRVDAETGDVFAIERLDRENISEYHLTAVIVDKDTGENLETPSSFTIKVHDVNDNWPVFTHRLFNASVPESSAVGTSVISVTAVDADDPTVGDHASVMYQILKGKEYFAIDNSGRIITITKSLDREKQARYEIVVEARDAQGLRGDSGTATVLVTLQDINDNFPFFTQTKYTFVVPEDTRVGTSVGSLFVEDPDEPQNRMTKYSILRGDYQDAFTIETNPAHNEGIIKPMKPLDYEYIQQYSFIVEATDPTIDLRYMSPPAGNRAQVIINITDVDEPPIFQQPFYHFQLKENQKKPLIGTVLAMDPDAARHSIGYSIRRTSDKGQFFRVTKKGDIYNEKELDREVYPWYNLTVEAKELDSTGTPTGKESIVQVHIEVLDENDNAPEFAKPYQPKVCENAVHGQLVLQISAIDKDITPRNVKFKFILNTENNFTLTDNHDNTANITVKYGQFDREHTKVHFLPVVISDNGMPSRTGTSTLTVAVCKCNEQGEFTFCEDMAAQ", "test": "Bender BMS253 ELISA kit; standard VE-cadherin at 2.5 ng/mL"}, "[2]": {"molecular_target": "Standard VE-cadherin (standard solutions run with the Bender MedSystems BMS253 kit) (UniProt P33151)", "test": "Bender BMS253 ELISA kit; standard VE-cadherin at 0.32 ng/mL; OD minus OD at 0 ng/mL"}, "[3]": {"molecular_target": "Standard VE-cadherin (standard solutions run with the Bender MedSystems BMS253 kit) (UniProt P33151)", "test": "Bender BMS253 ELISA kit; standard VE-cadherin at 10 ng/mL; OD minus OD at 0 ng/mL"}, "[4]": {"molecular_target": "Standard VE-cadherin (standard solutions run with the Bender MedSystems BMS253 kit) (UniProt P33151)", "test": "Bender BMS253 ELISA kit; standard VE-cadherin at 0.16 ng/mL; OD minus OD at 0 ng/mL"}, "[5]": {"molecular_target": "Standard VE-cadherin (standard solutions run with the Bender MedSystems BMS253 kit) (UniProt P33151)", "test": "Bender BMS253 ELISA kit; standard VE-cadherin at 2.5 ng/mL; second replicate"}, "[6]": {"molecular_target": "Standard VE-cadherin (standard solutions run with the Bender MedSystems BMS253 kit) (UniProt P33151)", "test": "Bender BMS253 ELISA kit; standard VE-cadherin at 10 ng/mL"}, "[7]": {"molecular_target": "Standard VE-cadherin (standard solutions run with the Bender MedSystems BMS253 kit) (UniProt P33151)", "test": "Bender BMS253 ELISA kit; standard VE-cadherin at 0.32 ng/mL; first replicate"}, "[8]": {"molecular_target": "Standard VE-cadherin (standard solutions run with the Bender MedSystems BMS253 kit) (UniProt P33151)", "test": "Bender BMS253 ELISA kit; standard VE-cadherin at 5 ng/mL; first replicate"}, "[9]": {"molecular_target": "Standard VE-cadherin (standard solutions run with the Bender MedSystems BMS253 kit) (UniProt P33151)", "test": "Bender BMS253 ELISA kit; standard VE-cadherin at 10 ng/mL; first replicate"}, "[10]": {"molecular_target": "Standard VE-cadherin (standard solutions run with the Bender MedSystems BMS253 kit) (UniProt P33151)", "test": "Bender BMS253 ELISA kit; standard VE-cadherin at 1.25 ng/mL; first replicate"}, "[11]": {"molecular_target": "Standard VE-cadherin (standard solutions run with the Bender MedSystems BMS253 kit) (UniProt P33151)", "test": "Bender BMS253 ELISA kit; standard VE-cadherin at 0.63 ng/mL; OD minus OD at 0 ng/mL"}, "[12]": {"molecular_target": "Standard VE-cadherin (standard solutions run with the Bender MedSystems BMS253 kit) (UniProt P33151)", "test": "Bender BMS253 ELISA kit; standard VE-cadherin at 10 ng/mL; second replicate"}, "[13]": {"molecular_target": "Standard VE-cadherin (standard solutions run with the Bender MedSystems BMS253 kit) (UniProt P33151)", "test": "Bender BMS253 ELISA kit; standard VE-cadherin at 5 ng/mL; second replicate"}, "[14]": {"molecular_target": "Standard VE-cadherin (standard solutions run with the Bender MedSystems BMS253 kit) (UniProt P33151)", "test": "Bender BMS253 ELISA kit; standard VE-cadherin at 0.16 ng/mL"}, "[15]": {"molecular_target": "Standard VE-cadherin (standard solutions run with the Bender MedSystems BMS253 kit) (UniProt P33151)", "test": "Bender BMS253 ELISA kit; standard VE-cadherin at 0.63 ng/mL; first replicate"}, "[16]": {"molecular_target": "Standard VE-cadherin (standard solutions run with the Bender MedSystems BMS253 kit) (UniProt P33151)", "test": "Bender BMS253 ELISA kit; standard VE-cadherin at 1.25 ng/mL; OD minus OD at 0 ng/mL"}, "[17]": {"molecular_target": "Standard VE-cadherin (standard solutions run with the Bender MedSystems BMS253 kit) (UniProt P33151)", "test": "Bender BMS253 ELISA kit; standard VE-cadherin at 0.63 ng/mL; second replicate"}, "[18]": {"molecular_target": "Standard VE-cadherin (standard solutions run with the Bender MedSystems BMS253 kit) (UniProt P33151)", "test": "Bender BMS253 ELISA kit; standard VE-cadherin at 0.16 ng/mL; first replicate"}, "[19]": {"molecular_target": "Standard VE-cadherin (standard solutions run with the Bender MedSystems BMS253 kit) (UniProt P33151)", "test": "Bender BMS253 ELISA kit; standard VE-cadherin at 0.63 ng/mL"}, "[20]": {"molecular_target": "Standard VE-cadherin (standard solutions run with the Bender MedSystems BMS253 kit) (UniProt P33151)", "test": "Bender BMS253 ELISA kit; standard VE-cadherin at 0.16 ng/mL; second replicate"}, "[21]": {"molecular_target": "Standard VE-cadherin (standard solutions run with the Bender MedSystems BMS253 kit) (UniProt P33151)", "test": "Bender BMS253 ELISA kit; standard VE-cadherin at 2.5 ng/mL; OD minus OD at 0 ng/mL"}, "[22]": {"molecular_target": "Standard VE-cadherin (standard solutions run with the Bender MedSystems BMS253 kit) (UniProt P33151)", "test": "Bender BMS253 ELISA kit; standard VE-cadherin at 2.5 ng/mL; first replicate"}, "[23]": {"molecular_target": "Standard VE-cadherin (standard solutions run with the Bender MedSystems BMS253 kit) (UniProt P33151)", "test": "Bender BMS253 ELISA kit; standard VE-cadherin at 1.25 ng/mL"}, "[24]": {"molecular_target": "Standard VE-cadherin (standard solutions run with the Bender MedSystems BMS253 kit) (UniProt P33151)", "test": "Bender BMS253 ELISA kit; standard VE-cadherin at 5 ng/mL"}, "[25]": {"molecular_target": "Standard VE-cadherin (standard solutions run with the Bender MedSystems BMS253 kit) (UniProt P33151)", "test": "Bender BMS253 ELISA kit; standard VE-cadherin at 0.32 ng/mL; second replicate"}, "[26]": {"molecular_target": "Standard VE-cadherin (standard solutions run with the Bender MedSystems BMS253 kit) (UniProt P33151)", "test": "Bender BMS253 ELISA kit; standard VE-cadherin at 1.25 ng/mL; second replicate"}, "[27]": {"molecular_target": "Standard VE-cadherin (standard solutions run with the Bender MedSystems BMS253 kit) (UniProt P33151)", "test": "Bender BMS253 ELISA kit; standard VE-cadherin at 0.32 ng/mL"}, "[28]": {"molecular_target": "Standard VE-cadherin (standard solutions run with the Bender MedSystems BMS253 kit) (UniProt P33151)", "test": "Bender BMS253 ELISA kit; standard VE-cadherin at 5 ng/mL; OD minus OD at 0 ng/mL"}}}
{"substance": "mAb provided in the human soluble VE-cadherin ELISA kit (Bender MedSystems, reference BMS253) (antibody)", "values": [{"measurement": "mean OD", "setting": "[1]", "value": 0.616, "unit": "OD"}, {"measurement": "corr. mean (OD)", "setting": "[2]", "value": 0.112, "unit": "OD"}, {"measurement": "corr. mean (OD)", "setting": "[3]", "value": 2.52, "unit": "OD"}, {"measurement": "corr. mean (OD)", "setting": "[4]", "value": 0.046, "unit": "OD"}, {"measurement": "OD", "setting": "[5]", "value": 0.621, "unit": "OD"}, {"measurement": "mean OD", "setting": "[6]", "value": 2.63, "unit": "OD"}, {"measurement": "OD", "setting": "[7]", "value": 0.258, "unit": "OD"}, {"measurement": "OD", "setting": "[8]", "value": 1.29, "unit": "OD"}, {"measurement": "OD", "setting": "[9]", "value": 2.41, "unit": "OD"}, {"measurement": "OD", "setting": "[10]", "value": 0.371, "unit": "OD"}, {"measurement": "corr. mean (OD)", "setting": "[11]", "value": 0.136, "unit": "OD"}, {"measurement": "OD", "setting": "[12]", "value": 2.85, "unit": "OD"}, {"measurement": "OD", "setting": "[13]", "value": 1.05, "unit": "OD"}, {"measurement": "mean OD", "setting": "[14]", "value": 0.154, "unit": "OD"}, {"measurement": "OD", "setting": "[15]", "value": 0.265, "unit": "OD"}, {"measurement": "corr. mean (OD)", "setting": "[16]", "value": 0.305, "unit": "OD"}, {"measurement": "OD", "setting": "[17]", "value": 0.222, "unit": "OD"}, {"measurement": "OD", "setting": "[18]", "value": 0.145, "unit": "OD"}, {"measurement": "mean OD", "setting": "[19]", "value": 0.244, "unit": "OD"}, {"measurement": "OD", "setting": "[20]", "value": 0.162, "unit": "OD"}, {"measurement": "corr. mean (OD)", "setting": "[21]", "value": 0.508, "unit": "OD"}, {"measurement": "OD", "setting": "[22]", "value": 0.61, "unit": "OD"}, {"measurement": "mean OD", "setting": "[23]", "value": 0.413, "unit": "OD"}, {"measurement": "mean OD", "setting": "[24]", "value": 1.17, "unit": "OD"}, {"measurement": "OD", "setting": "[25]", "value": 0.181, "unit": "OD"}, {"measurement": "OD", "setting": "[26]", "value": 0.454, "unit": "OD"}, {"measurement": "mean OD", "setting": "[27]", "value": 0.22, "unit": "OD"}, {"measurement": "corr. mean (OD)", "setting": "[28]", "value": 1.06, "unit": "OD"}]}
